The numbers were not newly measured in patent publication US20070140974A1, “Targeted nanoparticles for magnetic resonance imaging” (General Electric Company, priority 2005, published 2007), which cites them from elsewhere.

The target of one data set is uPAR (Homo sapiens, UniProt Q03405).
The conditions of data set [1]: room temperature, 1.5 Tesla magnetic field.

Sequence of uPAR (Q03405 23-305): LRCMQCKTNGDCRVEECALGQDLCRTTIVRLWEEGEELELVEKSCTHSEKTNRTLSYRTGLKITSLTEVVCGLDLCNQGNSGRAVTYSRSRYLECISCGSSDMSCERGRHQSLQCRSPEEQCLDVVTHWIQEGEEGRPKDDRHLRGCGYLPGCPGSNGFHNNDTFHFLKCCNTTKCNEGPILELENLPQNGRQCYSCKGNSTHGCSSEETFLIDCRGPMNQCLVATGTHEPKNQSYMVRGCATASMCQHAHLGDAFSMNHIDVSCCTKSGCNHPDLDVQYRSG

Turning to AESTYHHLSLGYMYTLN, the “binding of uPAR and inhibition of integrin or vitronectin binding” value with uPAR is “capable of binding uPAR and inhibiting binding of integrin”. Regarding `O=C([O-])CN(CCN(CC(=O)[O-])CC(=O)O)CCN(CC(=O)[O-])CC(=O)O.[Gd+3]` [Gd-DTPA], the R1 relaxivity in data set [1] was 3 mM⁻¹ s⁻¹. As for AELDLSTFYDIQYLLRT, the “binding of uPAR and inhibition of integrin or vitronectin binding” value with uPAR was “capable of binding uPAR and inhibiting binding of vitronectin”. As for AEFFKLGPNGYVYLHSA, the “binding of uPAR and inhibition of integrin or vitronectin binding” value in the data set with uPAR is “capable of binding uPAR and inhibiting binding of vitronectin”. For AEPVYQYELDSYLRSYY, the “binding of uPAR and inhibition of integrin or vitronectin binding” value with uPAR was “capable of binding uPAR and inhibiting binding of vitronectin”.
